Data on 1 substance can be found in IntAct's records for PubMed 15670823.

The target in the assay is cnkr1_human CNKSR1 (UniProt Q969H4).
Sequence of cnkr1_human CNKSR1 (Q969H4 whole entry): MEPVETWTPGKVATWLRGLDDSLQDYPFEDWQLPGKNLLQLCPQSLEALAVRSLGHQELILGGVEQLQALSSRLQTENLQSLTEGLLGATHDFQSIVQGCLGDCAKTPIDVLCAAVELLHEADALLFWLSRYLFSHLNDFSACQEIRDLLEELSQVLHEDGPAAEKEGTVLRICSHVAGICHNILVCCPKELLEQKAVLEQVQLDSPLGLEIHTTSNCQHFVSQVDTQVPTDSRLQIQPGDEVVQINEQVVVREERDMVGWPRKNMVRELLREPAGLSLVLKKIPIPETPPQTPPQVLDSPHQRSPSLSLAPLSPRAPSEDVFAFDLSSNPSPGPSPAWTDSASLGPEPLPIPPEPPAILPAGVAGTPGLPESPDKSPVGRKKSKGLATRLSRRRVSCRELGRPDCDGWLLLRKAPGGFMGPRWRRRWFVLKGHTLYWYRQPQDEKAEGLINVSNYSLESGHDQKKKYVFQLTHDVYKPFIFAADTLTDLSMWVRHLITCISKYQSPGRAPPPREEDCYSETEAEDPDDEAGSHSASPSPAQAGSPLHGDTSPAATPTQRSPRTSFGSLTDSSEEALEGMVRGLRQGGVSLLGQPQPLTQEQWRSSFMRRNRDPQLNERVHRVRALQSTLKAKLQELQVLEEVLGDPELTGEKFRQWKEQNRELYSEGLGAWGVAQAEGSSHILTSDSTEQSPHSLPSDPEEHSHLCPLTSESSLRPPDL

Regarding “Rho-related GTP-binding protein RhoC (Homo sapiens), P08134 G14V”, the “effect of a mutation on the interaction” value was “increasing interaction”.
